This note sets out measurements from patent US10087225B2, “Formulation of MK2 inhibitor peptides” (MOERAE MATRIX, INC., priority 2015, dated 2018).

Experiment in all cases: Kinase Profiling Assay
Holding throughout (format): biochemical

One assay deals with T1, PrKX(h) (Homo sapiens, UniProt P51817).
T1 sequence (P51817 1-358): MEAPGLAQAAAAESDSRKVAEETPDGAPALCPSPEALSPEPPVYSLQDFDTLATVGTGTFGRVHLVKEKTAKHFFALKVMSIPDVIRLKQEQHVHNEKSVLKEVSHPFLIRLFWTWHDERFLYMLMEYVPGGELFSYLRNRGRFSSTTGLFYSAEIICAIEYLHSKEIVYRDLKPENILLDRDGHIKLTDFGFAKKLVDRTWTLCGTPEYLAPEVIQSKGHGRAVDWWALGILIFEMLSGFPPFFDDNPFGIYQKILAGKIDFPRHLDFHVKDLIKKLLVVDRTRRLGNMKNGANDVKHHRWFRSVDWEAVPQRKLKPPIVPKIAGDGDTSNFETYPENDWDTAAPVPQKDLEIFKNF

In the next assay the target is Ret(V804M)(h) (Homo sapiens, UniProt P07949, V804M).
The target in a further assay is T2, DYRK2(h) (Homo sapiens, UniProt Q92630).
T2 sequence (Q92630 1-601): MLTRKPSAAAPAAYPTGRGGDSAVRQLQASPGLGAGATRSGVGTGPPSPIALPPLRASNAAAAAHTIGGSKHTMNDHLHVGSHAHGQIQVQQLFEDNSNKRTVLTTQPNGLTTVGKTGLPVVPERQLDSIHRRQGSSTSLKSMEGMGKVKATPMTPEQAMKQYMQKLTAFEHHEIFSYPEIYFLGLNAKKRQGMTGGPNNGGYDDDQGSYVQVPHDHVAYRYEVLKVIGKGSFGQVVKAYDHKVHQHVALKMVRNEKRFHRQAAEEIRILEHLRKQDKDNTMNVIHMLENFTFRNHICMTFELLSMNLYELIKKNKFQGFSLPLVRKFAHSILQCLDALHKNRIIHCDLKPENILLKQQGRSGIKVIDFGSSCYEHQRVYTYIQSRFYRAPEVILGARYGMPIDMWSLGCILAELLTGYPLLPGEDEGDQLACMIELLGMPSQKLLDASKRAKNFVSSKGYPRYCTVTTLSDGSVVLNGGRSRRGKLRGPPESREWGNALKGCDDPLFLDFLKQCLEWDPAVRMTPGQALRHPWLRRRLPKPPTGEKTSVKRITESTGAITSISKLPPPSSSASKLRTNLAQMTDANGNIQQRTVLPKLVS
To be noted: 100 μM.

The next assay deals with Fes(h) (Homo sapiens, UniProt P07332). To be noted: 100 μM.
Sequence of Fes(h) (P07332 whole entry): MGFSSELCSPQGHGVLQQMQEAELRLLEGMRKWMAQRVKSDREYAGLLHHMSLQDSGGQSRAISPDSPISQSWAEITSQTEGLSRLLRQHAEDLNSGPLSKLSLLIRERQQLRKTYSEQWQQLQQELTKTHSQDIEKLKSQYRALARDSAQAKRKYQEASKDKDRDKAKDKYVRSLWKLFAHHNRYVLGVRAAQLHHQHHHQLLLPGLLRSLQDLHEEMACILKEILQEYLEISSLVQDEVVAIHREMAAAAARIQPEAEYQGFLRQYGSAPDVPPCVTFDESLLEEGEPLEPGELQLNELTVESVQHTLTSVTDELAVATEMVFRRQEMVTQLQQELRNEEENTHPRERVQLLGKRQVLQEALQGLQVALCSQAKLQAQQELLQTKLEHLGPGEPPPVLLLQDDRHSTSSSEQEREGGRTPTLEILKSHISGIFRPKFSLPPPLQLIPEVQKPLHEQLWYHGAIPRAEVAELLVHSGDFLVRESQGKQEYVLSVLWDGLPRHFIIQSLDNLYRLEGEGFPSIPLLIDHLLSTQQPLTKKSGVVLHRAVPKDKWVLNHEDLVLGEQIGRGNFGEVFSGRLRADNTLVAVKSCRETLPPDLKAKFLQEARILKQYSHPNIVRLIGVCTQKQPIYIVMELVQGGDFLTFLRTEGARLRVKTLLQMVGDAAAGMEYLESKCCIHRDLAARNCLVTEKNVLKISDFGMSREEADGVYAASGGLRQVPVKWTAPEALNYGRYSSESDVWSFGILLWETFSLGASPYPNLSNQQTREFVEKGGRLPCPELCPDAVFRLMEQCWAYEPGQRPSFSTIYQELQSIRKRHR
The target of the next assay is T3, MKK6(h) (Homo sapiens, UniProt P52564).
T3 sequence (P52564 1-334): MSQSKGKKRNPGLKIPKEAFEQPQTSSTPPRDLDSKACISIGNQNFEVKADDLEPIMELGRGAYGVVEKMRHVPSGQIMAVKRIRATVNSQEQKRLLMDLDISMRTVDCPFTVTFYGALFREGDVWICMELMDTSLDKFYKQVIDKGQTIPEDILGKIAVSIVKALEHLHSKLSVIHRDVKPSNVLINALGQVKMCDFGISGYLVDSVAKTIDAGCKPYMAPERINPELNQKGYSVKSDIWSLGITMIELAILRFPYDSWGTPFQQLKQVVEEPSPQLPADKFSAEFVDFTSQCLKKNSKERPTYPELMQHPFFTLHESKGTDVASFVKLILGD
The following applies: 100 μM.

For a further assay, the target named is MSK1(h) (Homo sapiens, UniProt O75582). The following applies: 100 μM.
Sequence of MSK1(h) (O75582 whole entry): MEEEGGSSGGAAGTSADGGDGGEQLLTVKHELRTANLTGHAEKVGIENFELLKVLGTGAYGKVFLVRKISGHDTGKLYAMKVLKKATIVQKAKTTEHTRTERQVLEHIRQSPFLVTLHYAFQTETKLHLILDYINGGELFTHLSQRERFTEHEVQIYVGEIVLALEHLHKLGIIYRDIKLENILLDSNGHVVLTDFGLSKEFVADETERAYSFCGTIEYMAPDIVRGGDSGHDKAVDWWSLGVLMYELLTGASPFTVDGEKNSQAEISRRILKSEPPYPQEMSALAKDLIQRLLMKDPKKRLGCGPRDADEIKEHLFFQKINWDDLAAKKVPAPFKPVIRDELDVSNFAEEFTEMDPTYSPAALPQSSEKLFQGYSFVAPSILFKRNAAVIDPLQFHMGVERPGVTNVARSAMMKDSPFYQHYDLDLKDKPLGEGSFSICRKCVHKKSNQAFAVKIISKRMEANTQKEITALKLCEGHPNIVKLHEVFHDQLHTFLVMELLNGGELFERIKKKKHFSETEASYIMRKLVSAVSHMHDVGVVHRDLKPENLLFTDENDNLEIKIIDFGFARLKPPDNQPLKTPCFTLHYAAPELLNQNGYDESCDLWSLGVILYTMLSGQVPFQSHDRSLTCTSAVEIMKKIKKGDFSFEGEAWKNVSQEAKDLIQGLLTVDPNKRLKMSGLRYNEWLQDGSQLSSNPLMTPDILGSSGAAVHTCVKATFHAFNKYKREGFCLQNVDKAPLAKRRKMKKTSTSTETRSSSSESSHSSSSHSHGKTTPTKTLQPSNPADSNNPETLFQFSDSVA
A further assay concerns the target MSK2(h) (Homo sapiens, UniProt O75676). To be noted: 100 μM.
The target in the next assay is mTOR/FKBP12(h) (Homo sapiens, UniProt P42345). The following applies: 100 μM.
Sequence of mTOR/FKBP12(h) (P42345 1362-2549 limits assumed): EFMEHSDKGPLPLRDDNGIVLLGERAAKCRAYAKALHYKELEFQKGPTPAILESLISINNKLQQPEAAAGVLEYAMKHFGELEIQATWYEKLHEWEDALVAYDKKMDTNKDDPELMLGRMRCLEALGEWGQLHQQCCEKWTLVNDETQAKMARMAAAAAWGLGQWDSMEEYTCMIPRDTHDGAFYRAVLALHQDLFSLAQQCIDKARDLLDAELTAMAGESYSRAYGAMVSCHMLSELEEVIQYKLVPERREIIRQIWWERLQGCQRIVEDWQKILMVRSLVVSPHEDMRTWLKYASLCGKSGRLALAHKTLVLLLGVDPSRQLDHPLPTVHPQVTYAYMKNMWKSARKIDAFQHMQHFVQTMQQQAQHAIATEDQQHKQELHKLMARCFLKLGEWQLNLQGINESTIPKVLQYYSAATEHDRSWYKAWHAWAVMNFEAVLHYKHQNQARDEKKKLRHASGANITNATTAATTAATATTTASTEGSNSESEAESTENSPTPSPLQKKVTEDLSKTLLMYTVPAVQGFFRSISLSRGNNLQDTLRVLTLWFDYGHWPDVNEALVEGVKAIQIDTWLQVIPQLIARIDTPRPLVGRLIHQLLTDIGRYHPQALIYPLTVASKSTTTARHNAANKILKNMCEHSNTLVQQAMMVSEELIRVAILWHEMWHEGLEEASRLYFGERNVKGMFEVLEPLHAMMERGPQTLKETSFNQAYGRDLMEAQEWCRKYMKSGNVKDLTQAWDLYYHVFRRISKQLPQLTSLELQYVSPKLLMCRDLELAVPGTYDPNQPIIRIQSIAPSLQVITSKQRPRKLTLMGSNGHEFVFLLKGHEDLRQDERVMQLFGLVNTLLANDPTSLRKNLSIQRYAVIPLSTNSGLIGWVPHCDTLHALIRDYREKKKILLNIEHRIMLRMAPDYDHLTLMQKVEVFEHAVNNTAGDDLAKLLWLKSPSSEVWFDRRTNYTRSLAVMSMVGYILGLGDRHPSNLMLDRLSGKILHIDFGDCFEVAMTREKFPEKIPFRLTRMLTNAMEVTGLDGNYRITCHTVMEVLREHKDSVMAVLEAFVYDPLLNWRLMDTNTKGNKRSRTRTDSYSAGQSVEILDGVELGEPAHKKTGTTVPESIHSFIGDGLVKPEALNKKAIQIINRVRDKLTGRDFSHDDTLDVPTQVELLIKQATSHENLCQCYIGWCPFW
A further assay deals with NEK7(h) (Homo sapiens, UniProt Q8TDX7). To be noted: 100 μM.
Sequence of NEK7(h) (Q8TDX7 whole entry): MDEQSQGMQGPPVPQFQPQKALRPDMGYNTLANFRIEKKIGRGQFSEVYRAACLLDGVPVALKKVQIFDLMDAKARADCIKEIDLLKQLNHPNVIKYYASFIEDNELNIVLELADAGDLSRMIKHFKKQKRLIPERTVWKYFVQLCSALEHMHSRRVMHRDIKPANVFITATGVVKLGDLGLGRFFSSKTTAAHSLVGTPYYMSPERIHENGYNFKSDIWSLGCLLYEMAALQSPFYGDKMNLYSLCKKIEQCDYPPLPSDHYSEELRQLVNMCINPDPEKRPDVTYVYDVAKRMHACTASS
In another assay the target is Pim-1(h) (Homo sapiens, UniProt P11309). The following applies: 100 μM.
Sequence of Pim-1(h) (P11309 whole entry): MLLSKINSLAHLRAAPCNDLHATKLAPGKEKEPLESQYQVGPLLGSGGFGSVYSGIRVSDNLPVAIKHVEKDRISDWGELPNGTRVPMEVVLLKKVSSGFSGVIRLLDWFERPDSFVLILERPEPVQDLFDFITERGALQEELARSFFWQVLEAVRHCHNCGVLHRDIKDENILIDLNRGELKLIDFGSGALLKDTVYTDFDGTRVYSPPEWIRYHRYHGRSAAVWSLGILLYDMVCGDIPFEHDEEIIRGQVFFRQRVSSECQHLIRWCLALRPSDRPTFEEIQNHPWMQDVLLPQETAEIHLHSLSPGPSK
The target of the next assay is PKCθ(h) (Homo sapiens, UniProt Q04759). The following applies: 100 μM.
Sequence of PKCθ(h) (Q04759 whole entry): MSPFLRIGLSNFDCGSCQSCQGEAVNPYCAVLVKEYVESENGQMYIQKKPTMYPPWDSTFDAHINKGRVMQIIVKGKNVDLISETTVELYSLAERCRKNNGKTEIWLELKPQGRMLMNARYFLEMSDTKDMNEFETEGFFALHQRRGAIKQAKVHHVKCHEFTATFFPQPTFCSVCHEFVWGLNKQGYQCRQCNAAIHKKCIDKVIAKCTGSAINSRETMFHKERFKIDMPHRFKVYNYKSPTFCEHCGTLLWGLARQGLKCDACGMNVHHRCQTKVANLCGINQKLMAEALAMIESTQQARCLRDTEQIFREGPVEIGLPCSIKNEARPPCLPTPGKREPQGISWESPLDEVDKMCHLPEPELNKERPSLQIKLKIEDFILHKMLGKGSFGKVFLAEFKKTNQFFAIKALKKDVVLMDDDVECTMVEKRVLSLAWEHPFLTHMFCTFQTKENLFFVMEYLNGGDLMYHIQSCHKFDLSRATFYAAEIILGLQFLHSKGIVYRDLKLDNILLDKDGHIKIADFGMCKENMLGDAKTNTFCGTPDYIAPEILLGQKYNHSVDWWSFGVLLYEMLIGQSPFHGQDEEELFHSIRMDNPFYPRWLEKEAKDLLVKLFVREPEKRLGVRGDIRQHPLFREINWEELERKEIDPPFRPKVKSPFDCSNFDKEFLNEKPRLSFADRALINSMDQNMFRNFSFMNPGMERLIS
Another assay has as its target Pyk2(h) (Homo sapiens, UniProt Q14289). To be noted: 100 μM.
A further assay addresses Ron(h) (Homo sapiens, UniProt Q04912). To be noted: 100 μM.
The next assay deals with T4, Rse(h) (Homo sapiens, UniProt Q06418).
T4 sequence (Q06418 41-890): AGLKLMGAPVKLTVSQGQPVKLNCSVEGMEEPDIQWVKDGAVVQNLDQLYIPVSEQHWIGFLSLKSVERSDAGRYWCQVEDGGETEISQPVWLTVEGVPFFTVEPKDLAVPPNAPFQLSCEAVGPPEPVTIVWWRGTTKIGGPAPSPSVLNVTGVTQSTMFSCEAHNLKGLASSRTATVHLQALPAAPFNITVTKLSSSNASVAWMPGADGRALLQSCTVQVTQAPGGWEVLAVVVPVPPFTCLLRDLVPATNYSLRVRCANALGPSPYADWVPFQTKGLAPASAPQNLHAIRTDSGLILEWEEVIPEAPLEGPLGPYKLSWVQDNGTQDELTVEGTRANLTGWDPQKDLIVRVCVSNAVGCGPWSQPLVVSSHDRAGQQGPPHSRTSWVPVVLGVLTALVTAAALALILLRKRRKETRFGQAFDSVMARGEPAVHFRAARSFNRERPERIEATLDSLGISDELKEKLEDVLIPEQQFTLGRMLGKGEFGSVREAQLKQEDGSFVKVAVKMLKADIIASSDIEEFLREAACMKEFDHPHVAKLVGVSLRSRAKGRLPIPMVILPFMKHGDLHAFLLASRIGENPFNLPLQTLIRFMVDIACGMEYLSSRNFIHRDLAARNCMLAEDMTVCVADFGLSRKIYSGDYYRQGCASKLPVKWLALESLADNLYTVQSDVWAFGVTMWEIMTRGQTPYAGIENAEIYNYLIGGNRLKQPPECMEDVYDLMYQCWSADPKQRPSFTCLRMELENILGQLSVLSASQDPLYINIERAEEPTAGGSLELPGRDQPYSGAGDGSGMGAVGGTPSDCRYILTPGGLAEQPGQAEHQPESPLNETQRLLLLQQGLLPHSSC
The following applies: 100 μM.

Sequence of MSK2(h) (O75676 whole entry): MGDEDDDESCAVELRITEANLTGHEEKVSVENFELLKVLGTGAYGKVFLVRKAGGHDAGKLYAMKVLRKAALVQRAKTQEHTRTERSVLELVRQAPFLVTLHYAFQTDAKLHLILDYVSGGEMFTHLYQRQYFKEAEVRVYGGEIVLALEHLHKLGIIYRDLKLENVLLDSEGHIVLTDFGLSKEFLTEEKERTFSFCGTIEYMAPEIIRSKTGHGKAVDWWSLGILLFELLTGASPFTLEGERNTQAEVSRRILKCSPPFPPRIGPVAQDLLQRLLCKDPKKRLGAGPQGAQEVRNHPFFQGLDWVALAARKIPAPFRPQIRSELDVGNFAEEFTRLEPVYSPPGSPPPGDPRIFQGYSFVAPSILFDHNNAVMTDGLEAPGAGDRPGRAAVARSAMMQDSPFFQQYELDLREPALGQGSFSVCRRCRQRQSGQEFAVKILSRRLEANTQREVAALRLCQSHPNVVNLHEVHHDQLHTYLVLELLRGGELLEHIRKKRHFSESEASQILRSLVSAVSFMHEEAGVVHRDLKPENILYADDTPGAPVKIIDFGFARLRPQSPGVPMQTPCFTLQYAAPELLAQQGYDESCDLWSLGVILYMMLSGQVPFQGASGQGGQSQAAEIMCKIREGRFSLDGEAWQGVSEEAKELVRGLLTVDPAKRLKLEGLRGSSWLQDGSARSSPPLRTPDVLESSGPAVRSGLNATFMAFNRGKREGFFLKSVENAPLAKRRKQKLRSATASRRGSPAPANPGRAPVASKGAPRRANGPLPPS

Turning to H-YARAAARQARAKALARQLGVAA-OH [MMI-0100], the values for the activity at 100 µM on PrKX(h) and at Ret(V804M)(h) were 84% and 92%, respectively.

“HRRIKAWLKKIKALARQLGVAA (Mammalian) [MMI-0500]”: the “% activity” value with DYRK2(h) is reported as 127%; with Fes(h), 23%; with MKK6(h), 18%; in the assay with MSK1(h) it was 8%; with MSK2(h) it was 14%; in the assay with mTOR/FKBP12(h), 140%. In addition, the “% activity” value with NEK7(h) is reported as 89%; with Pim-1(h) it was 0%; with PKCθ(h) it was 62%; with PrKX(h) (100 μM), 57%; with Pyk2(h) it was 46%; with Ret(V804M)(h) (100 μM), 36%. Besides, the “% activity” value with Ron(h) worked out at 46%; with Rse(h) it was 63%.

As to “YARAAARQARAKALNRQLGVA (Mammalian) [MMI-0200]”, the “% activity” value came out at 142% with DYRK2(h); 74% with Fes(h); 98% in the assay with MKK6(h); 50% with MSK1(h); 88% in the assay with MSK2(h); 118% in the assay with mTOR/FKBP12(h). Besides, the “% activity” value in the assay with NEK7(h) stood at 96%; in the assay with Pim-1(h) it was 18%; in the assay with PKCθ(h), 101%; in the assay with Pyk2(h), 127%; with Ron(h), 120%; in the assay with Rse(h), 88%.
